Source: the nanobody polyreactivity screen of Harvey et al. (2022)

Experiment: yeast display, Sf9 membrane polyspecificity reagent, FACS + sequencing; frameworks hold sequencing errors
How it was run: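 Synthetic nanobody libraries on Saccharomyces cerevisiae BJ5465 were galactose-induced for 36–48 hours, stained 1 hour at 4 °C with 10% biotinylated, detergent-solubilized Sf9 membrane reagent and enriched on streptavidin microbeads. FACS then separated cells into low and high (top ~1%) gates by anti-HA (expression) and streptavidin (reagent binding) fluorescence. Genes were colony-PCR amplified, MiSeq 2 × 250 sequenced and CDR-length filtered. A clone's polyreactivity label is that of its gate of origin.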

QVQLVESGGGLVQAGGSLRLSCAASGSTFYTYTAMGWYRQAPGKERELVAAITWRGGSTYYADSVKGRFTISRDNAKNTVYLQLNSLKPEDTAVYYCNTVHYYRDYDYWGQGTQVTVSS
polyreactivity (PSR sort gate): high polyreactivity

QVQLVESGGGLVQAGGSLRLSCAAPGSIFPRYAMGWYRPAPGKERELVAAISRSGGSTYYADSVKGRFTISRDNAKNTVYLQMNSLKPEDTAVYYCATDKVSHRRYDYWGQGTQVTVSS
polyreactivity (PSR sort gate): high polyreactivity

QVQLVESGGGLVQAGGSLRLSCAASGITFDYYAMGWYRPAPGKERELVAAISGSGARTYYADSVKGRFTISRDTAKNTFYLQMNSLKPEDTAVYYCAAEYYTVPPGGIEDYWGQGTQVTVSS
polyreactivity (PSR sort gate): high polyreactivity

QVQLVESGGGLVQAGGSLPLSCAASGLTFYRYAMGWYREAPGKERELVAAISFSGGSTYYADSVKGRFTISRDIAKYTVYIQMNCLKPEDTAVYYCAASYQGRRYQDRYDYWGQGNQVTVSS
polyreactivity (PSR sort gate): high polyreactivity

QVQLVESGGGLVQAGGSLRLSCAASGSIFVSNAMGWYRQAPGKERELVAAISSGGSTNYADSVKGRFTISRDNAKNTVYLQMNSLKPEDTAVYYCAARYYGYAGRFDYWGQGTQVTVSS
polyreactivity (PSR sort gate): low polyreactivity

QVQLVESGGGVVQAGGSLRLSCAASGRIFVYYMGWYRQAPGKERVLVAAISVGGGSTYYADSVKGRFTISRDHAKNTVYLQMNSLKPEDTAVYYCAAAWSNYFGDPSYYWGQGTQVTVSS
polyreactivity (PSR sort gate): low polyreactivity

QVQLVESGGGLVQAGGSLRLSCAASGSIFSQYAMGWYRQAPGTERDFVAAINWSGGRTRYADSVKGRFTISRDNAKNTVYLQMNSLKPEDTAVYYCAKVYSLYSYSGRYDYWGQGTQVTVSS
polyreactivity (PSR sort gate): high polyreactivity

QVQLVDSGGGLGQAGGSLRLSCAASGSIFTTNAMGCYRHAPGKERELVAASSSRGGSTYYADSVKGRFTISRDNAKNTVYLQMNSLKPEDTAVYYCAARYRWPIPGTNYEYWGQGTQVTVSS
polyreactivity (PSR sort gate): low polyreactivity

QVQLVESGGGLVQAGGSLRVSCAASGSTFDVNAMGWYRQAPGKERELVAVITSGGSTNYADSVKGRFTISRDNAKNSVYLQMNSLKPEATAVYYCAKDSRTLYDYWGQGTQVTVSS
polyreactivity (PSR sort gate): low polyreactivity

QVQLVESGGGLVQAGGSLRLSCAASGSIFYFNAMGWYRQAPGKERELVAAITYSGGSTYYADSVKGRFTISRDNAKNTVYLQMNSLKPEDTAVYYCAAERRTFPLRNFDYWGQGTQVTVLS
polyreactivity (PSR sort gate): low polyreactivity

QVQLVESGGGLVQAGGSLRLSCAASGRTFVYYAMAWYRQAPGKERELVAAISRTGVNTYYADSVKGRFTISRDNAKNTVYLQMNSQKPEDTAVYYCNKVYRADRSSVPYEYWGQGTQVTVSS
polyreactivity (PSR sort gate): high polyreactivity

QVQLQESGGGLVQAGGSLRLWCAASRNISGSSDLGWYHQAPGKEREFVASITSGGTTYYADSVKGRFTISRDNAKNTVYLQMNSLKPEDTAVYYCAVGDPADAEFGYWGQGTQVTVSS
polyreactivity (PSR sort gate): low polyreactivity

QVQLVESGGGLVQAGGSLLLSCAASGFTFQYYAMGWYRPEPGKERELVASISWSGGSTYYADSVKGRFTISRDNAKNTVYLQMHSLKPEDTAVYYCAATVTYFFSSARFSAYGYWGQGTQVTVSS
polyreactivity (PSR sort gate): high polyreactivity

QVQLVESGGGLVQAGGSLRLSCAASGSTFIVYAMGWYRQAPGKERELVAAISLDGGSTYYADSVKGRFTISRDNAKNTVYLQMNSLKPEDSAVYYCNADYYANSITYDSWGQGSQVTVSS
polyreactivity (PSR sort gate): low polyreactivity

QVQLVESGGGLVQAGGSLRLSCAASGSIFYFNAMGWYRQAPGKERELVAAITYSGGSTYYADSVKGRFTISRDNAKNTVYLQMNSLKPEDTAVYYCNAQVYYSVRGYPYGYYRNDYWGQGTQVTVSS
polyreactivity (PSR sort gate): low polyreactivity

QVQLVESGGGLVQAGGTLRISCAASGRIFTIYAMGWYRQAPGKERELVATISSNVGSTYYADSVKGRFTISRDNAKNTVYLQMNSLKPEDTAVYYCAATRRAGFTTAKFDYWGQGTQVTVSS
polyreactivity (PSR sort gate): high polyreactivity

QVQHVESGGGLVQEGGRLRLSCAASGITFGANTMGWSRQAPGKERELVAAITISGGITHYADSVKGRFTISRDNAKNTVYLQMNSLKPEDTAVYYCAAGAYWRLYPYRLRNVGRMYYWGQGTQVTVSS
polyreactivity (PSR sort gate): low polyreactivity

QVQLVESGGGLVQAGGSLRLSCAASGRTFRRYTMGWYRQAPGKESELVATISSGGSTYADSVKGRFTISLDNAKNTVYLQMNSLKPEDTAVYYCAARYDVAWYSKRYSWGQGTQVTVSS
polyreactivity (PSR sort gate): high polyreactivity

QVQLVESGGGLVQAGGSLRLSRAASGRTFRTYAMGWYRQAPGKERELVAAITSGGNTYYADSVKGRFTISRDNAKNTVYLLMNSLKPDDTAVYYCAAAASGFSRYRSTTWGQGTQGTVSS
polyreactivity (PSR sort gate): high polyreactivity

QVQLVESGGGLVQAGGSLRLSCAASGFIFGSIVMGWYRQAPGKERELVAAISKRGGTTYYADSVKGRFTISRDNAKNPVYLQMNSLKPEDTAVYYCAVEWCFRRNGRMDYWGQGTQVTVSS
polyreactivity (PSR sort gate): high polyreactivity

QDQLVESGGGLVQAGGSLRLSCAASGIIFYGYAMGWYRQAPGKERQLVAGISSGGSTYYADSVKGRFTISRDNAKNTVYLQMNSLNPEDTAVYYCNAEGGYSYESTDHYRYDYWGLGTQVTVSS
polyreactivity (PSR sort gate): low polyreactivity

QVQLVQSGGGLVQAGGSLRLSCAASGSTFWMNAMGWYRQAPGKEREFVAAITVRGGSTYYADSVKGRFTISRDNAKNTVYLQMNSLKPEDTAVYYCNRPSSLAWPWTGSFSRYDYWGQGTQVTVSS
polyreactivity (PSR sort gate): low polyreactivity

QVQLVESGGGLVQAGGSLRLSCAASGIIFIAYAMGWYRQAPGKERELVADISIGGSTNYADSVKGRFTISRDNAKNTVYLQMNSQKPEDTAVYYCNAGGGFYGSTVEHDYWGQGTQVTVSS
polyreactivity (PSR sort gate): low polyreactivity

QVQLVESGGGLVQAGGSLRLSCAASGSIFAVYAMGWYRQAPGKERELVAAISVSGGRTYYADSVKGRFTISRDNAKNTVYLQMNSLKPEDTAVYYCAARSLSYYRSRAAQYGWGYYYWGQGTQVTVSS
polyreactivity (PSR sort gate): high polyreactivity

QVQLVESGGGLVQAGGSLRLSCAASGSIFEEYAMGWYRQAPGKERELVARIDESGGSTYYADSVKGRFTISRDTAKNTVYLQMNSLKPEDTAVYYCAAERYSDSWGYYSVDEGSWEMDYWGQGTQVTVSS
polyreactivity (PSR sort gate): low polyreactivity

QVQLVDSGGGLVQAGGSLRLSCAASGSIFRYYAMGWYRQAPGKEREFVAAITYSGGSTHYADSVKGRFTISRDNEKNTVYLQMNSLKPEDTAVYYCAADYYWRVHYGYWGLGTQVTVSS
polyreactivity (PSR sort gate): high polyreactivity

QVQLVESGGGLVQAGGSLRLSCAASGSISGSYAMGWYRQAPGKERELVASITTSGGGTYYADSVKGRFTISRDNAKNTVYLQMNSLKPEDTAVFYCAVEYGYPYAGLDYWGQGTQVTVSS
polyreactivity (PSR sort gate): low polyreactivity

QVQLVESGGGLVQAGGSLLLSCAASGSTFYKYAMGWYRQAPGKERELVARNSRGGGSTYYADSVKGRFTISRDNAKNTVYLQMNSLKPEDTAVYYCAAGVRGQNEGYYWGQGTQVTVSS
polyreactivity (PSR sort gate): high polyreactivity

QVQHVESGGGLVQAGGRLRLSCAASGSTFDYYVMGWYRQAPGKEREMVAAISQNAGSTYYADSVKGRFTISRDNAKNTVYLQMNSLKPEDTAVYYCAAPDYRNGVRYPLDYWGQGTQVTVSS
polyreactivity (PSR sort gate): low polyreactivity

QVQHVESGGGLVQAGGSLRLSCAASGITFNEYAMGWYRQAPGKEREFVAAISSSGARTYYADSVKGRFTISRDNAKNTVYLQMNSLKPEDTAVYYCAAVYRSWTSYNGRNYWGQGTQVTVSS
polyreactivity (PSR sort gate): high polyreactivity

QVQLVESGGGLVQAGGSLRLSCAASGFFFSHYAMGWYRQAPGKERVFVATISKRGGSTTYADSVKGRFTISRDNAKNTVYLQMNSLKPEDTAVYYCAATYYRFPSLIAYVRYDYWGQGTQVTVSS
polyreactivity (PSR sort gate): high polyreactivity

QVQLVESGGGLVLAGGSLRLSCAASGLIFAVYAMGWYRQAPGKERELVAGISASAASTYYADSVKGRFTISRDNAKNTVYLQMNSLKPEDTAVYYCAAGFYRRGKYDYWGQGTQVTVSS
polyreactivity (PSR sort gate): high polyreactivity

QVQLVESGGGLVQAGGSLRLSCAASGRIFDYYAMGWYRQAPGKERELVATITSGSRTYYADSVKGRFTISRDNAKNTVYLQMNSLKPEDTAVYYCNTVSFKRLGWRYDYWGQGTQVTVSS
polyreactivity (PSR sort gate): high polyreactivity

QVQLVESGGGLVQAGGSLRFSCAASGYIFSLNGRGWYRQAPGKERELVAAISSSGGRTYYADSVKGRFTISRDNAKNTVYLQMNSLKPEDTAVYYCAAEVYLSTYYQDMNYWGQGTQVTVSS
polyreactivity (PSR sort gate): high polyreactivity

QVQLVESGGGLVQAGGSLRLSCAASGSIFFDGNAMGWYRQAPGKERELVAAISVSGGSTYYADSVKGRFTISRDYAKTTVYLQINRLKPEDTAVYDCAKYPSKSYVPGDYWGQGTQVTVSS
polyreactivity (PSR sort gate): low polyreactivity

QVQLVESGGGLVQAGGSLRLSCAASGSTFRIYTMGWYRQAPGKERELVAGISSSGNTNYADSVKGRFTISRDNAKNTVYLQMNSLKPEDTAVYYCNAASLKFTSPVRFGYWGQGTQVTVSS
polyreactivity (PSR sort gate): high polyreactivity

QVQLEESGGCIVQAGGSHRLSCAASGRTFTLNAMGWYRQAPGKEREFVAAISNSGVRTYYADSVKGRFTISRDNAKNTVFLQMNSLKPEDTGVYYCARTYQVGDSIDDYWGQGTQVNVSS
polyreactivity (PSR sort gate): low polyreactivity

QVQLVESGGGLVQAGGSLRLSCAASGSTLSAYVMGWYRQAPGKERELVAAITRGGNTYYADSVKGRFTISRDNAKNTVYLQMNSLKPEDTAVYYCAARTYVSYGYYTRNYWGQGTQVTVSS
polyreactivity (PSR sort gate): high polyreactivity

QVQLVESGGGLVQAGGSLRLSCAASGSIFRWYAMGWYRQAPGKERELVAAISRRGGRTYYADSVKGRFTISRDNAKNTVYLQMNSLKPEDSAVYYCNADFGYRLPGNYWGQGTQVTVSS
polyreactivity (PSR sort gate): low polyreactivity

QVQLVESGGGLVQAGGSLRLSCAASGSIFRGNAMGWYRQAPGKERELVAAISKSGGSTYYADSVKGRFTISRDNAKNTVYLQMNSLKPEDTAVYYRAARTTYLYGMYYWGQGTQVTVSS
polyreactivity (PSR sort gate): low polyreactivity

QVQLVESGGGLVQAGGSLRLSCAASGRIFYYNAMGWYRQAHGKERELVAAISFSDGSTYYADSVKGRFTISRDNAKNTVYLQMNSLKPEDTAVYYCAADIGYDYDYWGQGTQVTVSS
polyreactivity (PSR sort gate): low polyreactivity

QLQLVESGGGLVQAGVSLRLSCASSGRIFALYAMGLYSQAPGKERELVAAITWRGGRTRYADSVKGRFTFSRDNAKYTVYLQMNSLKPEDTAVYYCAKEYVKYQWDYGYFGQGTQVTVSS
polyreactivity (PSR sort gate): high polyreactivity

QVQLVESGGGLVQAGGSLRLSCAASGITFIDYAMGGYRQAPGKVRELVAAITVRGSTYYADSVKGRFTISRDNAKNTVYLQMNSLKPEDTAVYYCAADTYVAADSPVTGERDSFDYWGQGTQVTVSS
polyreactivity (PSR sort gate): low polyreactivity
